# From the Human Domainome abundance scans (Beltran et al. 2025)
# ± gives the uncertainty stated by the source.
# B1: Ankyrin-1, residues 1405 to 1484; numbered along this chain, P16157 (parent)
# chain: MKMAVISEHLGLSWAELARELQFSVEDINRIRVENPNSLLEQSVALLNLWVIREGQNANMENLYTALQSIDRGEIVNMLE
# Variants of: B1
# Test: abundance fitness (aPCA) (normalised: wild type 0, dead -1); higher = more abundant; growth selection in yeast, the domain comes from the species named
# Conditions: Homo sapiens
row,Variant,abundance fitness
1,MKMAVISEFLGLSWAELARELQFSVEDINRIRVENPNSLLEQSVALLNLWVIREGQNANMENLYTALQSIDRGEIVNMLE [H9F],-0.249 ± 0.18
2,MKMAVISEALGLSWAELARELQFSVEDINRIRVENPNSLLEQSVALLNLWVIREGQNANMENLYTALQSIDRGEIVNMLE [H9A],-0.429 ± 0.14
3,MKMAVISEHLGLSWAELARELQFSVEDINRIRVENPNSLLEQSVALLNLWVIREQQNANMENLYTALQSIDRGEIVNMLE [G55Q],-0.339 ± 0.13
4,MKMAVISEHLGLSWAELARELQFSVEDINRIRVENPNSLLEQSVALLNLWVIREGQNANMENLYTALQSIARGEIVNMLE [D71A],-0.229 ± 0.053
5,MKMAVISEHLGLSWAELARELQFSVEDINRIRVENPNSLLEQSVALLNLWVIREGQNANMENTYTALQSIDRGEIVNMLE [L63T],-0.493 ± 0.15
6,MKMAVISEHLGLSWAELARELQFSVEDINRIRVENPNSLLEQSVALLNLWVIREGQNANMENFYTALQSIDRGEIVNMLE [L63F],-0.632 ± 0.3
7,MKMAVISEHLGLSWAELARELQFSVEDINRIRVENPNSLLEQSVALLNLWVIREGQNANMENLYTQLQSIDRGEIVNMLE [A66Q],-0.402 ± 0.21
8,MKMAVISEHLGLSWAELGRELQFSVEDINRIRVENPNSLLEQSVALLNLWVIREGQNANMENLYTALQSIDRGEIVNMLE [A18G],-0.075 ± 0.048
9,MKMAVISEHLGLSWAELMRELQFSVEDINRIRVENPNSLLEQSVALLNLWVIREGQNANMENLYTALQSIDRGEIVNMLE [A18M],-0.827 ± 0.27
10,MKMAVISEHLGLSWAELTRELQFSVEDINRIRVENPNSLLEQSVALLNLWVIREGQNANMENLYTALQSIDRGEIVNMLE [A18T],-0.89 ± 0.2
11,MKMAVISEHLGLSWAELARELQFSVEDINSIRVENPNSLLEQSVALLNLWVIREGQNANMENLYTALQSIDRGEIVNMLE [R30S],-0.139 ± 0.062
12,MKMAVISEHLGLSWLELARELQFSVEDINRIRVENPNSLLEQSVALLNLWVIREGQNANMENLYTALQSIDRGEIVNMLE [A15L],0.076 ± 0.049
13,MKMAVISEHLGLSWCELARELQFSVEDINRIRVENPNSLLEQSVALLNLWVIREGQNANMENLYTALQSIDRGEIVNMLE [A15C],-0.238 ± 0.13
14,MKMAVISEHLGLSWAELARELQFHVEDINRIRVENPNSLLEQSVALLNLWVIREGQNANMENLYTALQSIDRGEIVNMLE [S24H],-0.429 ± 0.18
15,MKMAVISEHLGLSWAELARELQFKVEDINRIRVENPNSLLEQSVALLNLWVIREGQNANMENLYTALQSIDRGEIVNMLE [S24K],-0.147 ± 0.099
16,MKMAVISEHLGLSWAELARELQFSVEDINRIRVENPNSQLEQSVALLNLWVIREGQNANMENLYTALQSIDRGEIVNMLE [L39Q],0.019 ± 0.17
17,MKMAVISEHLGLSWAELARELQFSVEDINRIRVENPNSLLEQSVALLNLWVIREGQNANTENLYTALQSIDRGEIVNMLE [M60T],-0.286 ± 0.19
18,MKMAVISEHLGLSWAELARELQFSVEDINRIRVENPNSLLEQSVALLNLWVIREGQNANKENLYTALQSIDRGEIVNMLE [M60K],-0.534 ± 0.35
19,MKMAIISEHLGLSWAELARELQFSVEDINRIRVENPNSLLEQSVALLNLWVIREGQNANMENLYTALQSIDRGEIVNMLE [V5I],-0.337 ± 0.15
20,MKMAVISEHLGLSWAELARELQFSVEDINRIRVENPNSLLEQSVALLNLWVIREGQNANMENLYCALQSIDRGEIVNMLE [T65C],-0.002 ± 0.087
21,MKMAVISEHLGLSWAELARELQFSVEDINRIRVENPNSLLEQSVALLNLWVIREGQNANMEPLYTALQSIDRGEIVNMLE [N62P],-0.265 ± 0.15
22,MKMAVISEHLGLSWAELARELQFSVEDINRIGVENPNSLLEQSVALLNLWVIREGQNANMENLYTALQSIDRGEIVNMLE [R32G],-0.212 ± 0.06
23,MKMAVISEHLGLSWAELARELQFSVEDINRICVENPNSLLEQSVALLNLWVIREGQNANMENLYTALQSIDRGEIVNMLE [R32C],-0.13 ± 0.19

row,Variant,abundance fitness
1,MKMAVISEHLGLSWAELARELQFSVEDINRIRVENPNSLLEQSVALLNLWVIREGQNANMENLYTALQKIDRGEIVNMLE [S69K],-0.035 ± 0.099
2,MKMAVISEHLGLSWAELARELQFSVEDINRIRVENPNSLLEQSVALLILWVIREGQNANMENLYTALQSIDRGEIVNMLE [N48I],-1.04 ± 0.24
3,MKMAVISEHLGLSWAELARELQFSVEDINRIRVENPNSLLEQSVALLALWVIREGQNANMENLYTALQSIDRGEIVNMLE [N48A],-0.415 ± 0.064
4,MKMAVISEHLGLSWAELARELQFSVEDINRIRVENPNSLLEQPVALLNLWVIREGQNANMENLYTALQSIDRGEIVNMLE [S43P],-0.721 ± 0.13
5,MKMAVISEHLGLSWAELARELQFSVEDINRIRVENPNSLLEQSVALLNLWVISEGQNANMENLYTALQSIDRGEIVNMLE [R53S],-0.591 ± 0.1
6,MKMAVISEHLGLSWAELARELQFSVEDINRIRVEPPNSLLEQSVALLNLWVIREGQNANMENLYTALQSIDRGEIVNMLE [N35P],-0.866 ± 0.23
7,MKMAVISEHLGLSWAELARELQFSVEDINRIRVENPNSLLEQSIALLNLWVIREGQNANMENLYTALQSIDRGEIVNMLE [V44I],-0.217 ± 0.12
8,MKMAVISEHLGLSWAELARELQFSVEYINRIRVENPNSLLEQSVALLNLWVIREGQNANMENLYTALQSIDRGEIVNMLE [D27Y],-0.597 ± 0.2
9,MKMAVISEHLGLSWAELARELQFSVEDINRIRVENPNSLLEQSVALLNLWVIREGQNANMENLYTALQSLDRGEIVNMLE [I70L],-0.762 ± 0.1
10,MKMAVISEHLGLSWAELARELQFSVEDINRIRVENPNSLLEQSVALLNLWVIREGQNANMQNLYTALQSIDRGEIVNMLE [E61Q],0.459 ± 0.34
11,MKMAVISEHLGFSWAELARELQFSVEDINRIRVENPNSLLEQSVALLNLWVIREGQNANMENLYTALQSIDRGEIVNMLE [L12F],-0.069 ± 0.2
12,MKMAVISEHLGLSWAELARELQFSVEDINRIRVENPNSLLEQSVALLNLAVIREGQNANMENLYTALQSIDRGEIVNMLE [W50A],-0.902 ± 0.2
13,MKMAVISEHLGLSWAELARELQFSVEDINRIRVENPNSLLEQSVALLNLEVIREGQNANMENLYTALQSIDRGEIVNMLE [W50E],-0.834 ± 0.23
14,MKMAVISEHLGLSWAELARELQFSVEDINRIRVENPNSLLEQSVALLNLYVIREGQNANMENLYTALQSIDRGEIVNMLE [W50Y],0.015 ± 0.17
15,MKMAVISEHLGLSWAELARELFFSVEDINRIRVENPNSLLEQSVALLNLWVIREGQNANMENLYTALQSIDRGEIVNMLE [Q22F],-0.092 ± 0.15
16,MKMAVISEHLGLSWAELARELPFSVEDINRIRVENPNSLLEQSVALLNLWVIREGQNANMENLYTALQSIDRGEIVNMLE [Q22P],-0.522 ± 0.14
17,MKMAVISEHEGLSWAELARELQFSVEDINRIRVENPNSLLEQSVALLNLWVIREGQNANMENLYTALQSIDRGEIVNMLE [L10E],-1.11 ± 0.41
18,MKMAVISEHAGLSWAELARELQFSVEDINRIRVENPNSLLEQSVALLNLWVIREGQNANMENLYTALQSIDRGEIVNMLE [L10A],-0.884 ± 0.2
19,MKMAVISEHKGLSWAELARELQFSVEDINRIRVENPNSLLEQSVALLNLWVIREGQNANMENLYTALQSIDRGEIVNMLE [L10K],-0.509 ± 0.38
20,MKMAVISEHLGLSWAELARELQFSVEDINRIRVLNPNSLLEQSVALLNLWVIREGQNANMENLYTALQSIDRGEIVNMLE [E34L],-0.241 ± 0.097
21,MKMAVISEHLGLSWAELARELQFSVEDINRIRVHNPNSLLEQSVALLNLWVIREGQNANMENLYTALQSIDRGEIVNMLE [E34H],-0.453 ± 0.18
22,MKMAVISEHLGLSWAELARELQFSVEDINRIRVFNPNSLLEQSVALLNLWVIREGQNANMENLYTALQSIDRGEIVNMLE [E34F],-0.185 ± 0.16
23,MKMAVISEHLGLSWAELARELQFSVEDINRIRVMNPNSLLEQSVALLNLWVIREGQNANMENLYTALQSIDRGEIVNMLE [E34M],-0.265 ± 0.34

row,Variant,abundance fitness
1,MKMAVISEHLGLSWAELARELQFSVEDINRIRVENPNSLLEQSVALLNLWVIREGQNGNMENLYTALQSIDRGEIVNMLE [A58G],0.038 ± 0.048
2,MKMAVISEHLGLSWAELARELQFSVEDINRIRVENPNSLLEQSVALLNLWVIREGQNQNMENLYTALQSIDRGEIVNMLE [A58Q],-0.095 ± 0.14
3,MKMAVISEHLGLSPAELARELQFSVEDINRIRVENPNSLLEQSVALLNLWVIREGQNANMENLYTALQSIDRGEIVNMLE [W14P],-0.785 ± 0.24
4,MKMAVISEHLGLSWAELARELQFSVEDINRIRVENPNSLLEQSVALLNLWVIREGQLANMENLYTALQSIDRGEIVNMLE [N57L],-0.108 ± 0.066
5,MKMAVISEHLGLSWAELARELQFSVEDINRIRVENPNSLLEQSVALLNLWVIREGQNANMENLYTALQSIDRGEIVNKLE [M78K],0.087 ± 0.11
6,MKMAVISEHLGLSWAELARELQFSVEDINRIRVENQNSLLEQSVALLNLWVIREGQNANMENLYTALQSIDRGEIVNMLE [P36Q],0.123 ± 0.11
7,MKMAVISEHLGLSWAELARELQFSVEDINRIRVENHNSLLEQSVALLNLWVIREGQNANMENLYTALQSIDRGEIVNMLE [P36H],-0.31 ± 0.12
8,MKMAVIYEHLGLSWAELARELQFSVEDINRIRVENPNSLLEQSVALLNLWVIREGQNANMENLYTALQSIDRGEIVNMLE [S7Y],-0.242 ± 0.14
9,MKMAVISEHLGLSWAELARELQFSVEDINRIRVENPNSLLEQSVALNNLWVIREGQNANMENLYTALQSIDRGEIVNMLE [L47N],-0.914 ± 0.35
10,MKMAVISEHLGLSWAELARELQFSVEDINRIRVENPNSLLEQSVALINLWVIREGQNANMENLYTALQSIDRGEIVNMLE [L47I],-0.256 ± 0.2
11,MKMAVISEHLGLSWAELARELQFSVEDINRIRVENPNSLLEQSVALLNVWVIREGQNANMENLYTALQSIDRGEIVNMLE [L49V],-0.314 ± 0.065
12,MKMAVISEHLGLSWAELARELQFSVEDINRPRVENPNSLLEQSVALLNLWVIREGQNANMENLYTALQSIDRGEIVNMLE [I31P],-0.639 ± 0.29
13,MVMAVISEHLGLSWAELARELQFSVEDINRIRVENPNSLLEQSVALLNLWVIREGQNANMENLYTALQSIDRGEIVNMLE [K2V],-0.089 ± 0.057
14,MQMAVISEHLGLSWAELARELQFSVEDINRIRVENPNSLLEQSVALLNLWVIREGQNANMENLYTALQSIDRGEIVNMLE [K2Q],-0.155 ± 0.11
15,MKMAVISEHLILSWAELARELQFSVEDINRIRVENPNSLLEQSVALLNLWVIREGQNANMENLYTALQSIDRGEIVNMLE [G11I],-0.726 ± 0.23
16,MKMAVISYHLGLSWAELARELQFSVEDINRIRVENPNSLLEQSVALLNLWVIREGQNANMENLYTALQSIDRGEIVNMLE [E8Y],-0.722 ± 0.14
17,MKMAVISEHLGLSWAELARELQFSVEDINRIRVENPNSLLEGSVALLNLWVIREGQNANMENLYTALQSIDRGEIVNMLE [Q42G],-0.923 ± 0.12
18,MKMAVISEHLGLSWAELARELQFSVEDINRIRVENPNSLLEQSVALLNLWVIREGQNANMENLYTALRSIDRGEIVNMLE [Q68R],-0.038 ± 0.05
19,MKMAVISEHLGLSWAELARELQFSVEDINRIRVENPNSLLEQSVALLNLWVIREGQNANMENLYTALVSIDRGEIVNMLE [Q68V],-0.08 ± 0.054
20,MKMAVISEHLGLSWAELARELQFSVEDINRIRVENPNSLLEQSVALLNLWVIREGQNANMENLYTALYSIDRGEIVNMLE [Q68Y],-0.202 ± 0.14
21,MKMAVISEHLGLSWAELARELQFSMEDINRIRVENPNSLLEQSVALLNLWVIREGQNANMENLYTALQSIDRGEIVNMLE [V25M],-0.056 ± 0.12
22,MKMAVISEHLGLSWAELARELQFSVEDINRIRVENPNSLLEQSVALLNLWVIREGQNANMENLYTALQSIDREEIVNMLE [G73E],-0.24 ± 0.064
23,MKMAVISEHLGLSWAELARELQFSVEDINRIRVENPNSLLEQSVALLNLWVIREGQNANMENLETALQSIDRGEIVNMLE [Y64E],-0.353 ± 0.096
